The source of these data is publication PMC9171410 (EMBO Reports, 2022).

One assay deals with T1, Gid10^57–292 (S. cerevisiae, UniProt P53242 57-292).
T1 sequence: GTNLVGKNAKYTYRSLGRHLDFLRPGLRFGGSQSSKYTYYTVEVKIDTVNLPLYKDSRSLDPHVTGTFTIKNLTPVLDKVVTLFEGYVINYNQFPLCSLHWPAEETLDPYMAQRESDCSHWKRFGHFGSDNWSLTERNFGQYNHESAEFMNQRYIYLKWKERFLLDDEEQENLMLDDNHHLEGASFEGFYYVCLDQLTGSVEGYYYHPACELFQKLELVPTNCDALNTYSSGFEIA
In words: ITC. Background: In ITC the heat of successive injections is recorded.

Another assay has as its target T2, Gid10^65–284 (S. cerevisiae, UniProt P53242 65-284).
T2 sequence: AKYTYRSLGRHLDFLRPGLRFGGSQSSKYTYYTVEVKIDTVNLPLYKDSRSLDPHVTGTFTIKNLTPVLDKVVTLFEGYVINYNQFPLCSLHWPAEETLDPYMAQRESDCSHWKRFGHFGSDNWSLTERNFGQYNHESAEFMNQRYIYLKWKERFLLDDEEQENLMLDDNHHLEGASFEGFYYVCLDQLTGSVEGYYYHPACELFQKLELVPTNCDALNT
Briefly: crystal structure.

PFITSRPVAW [Art2 degron peptide PFITSRPVAW]: the Kd (as a rule, the free concentration of one partner at which half of the binding sites on the other are occupied at equilibrium, for simple one-to-one binding) with Gid10^57–292 came to 1030 nM. That is a single-digit micromolar value. PFITSRPW [Art2 degron peptide PFITSRPW]: the binding result with Gid10^65–284 was “binds”.
